Reference: US20230192834A1

T1: TGFβ3 (R&D Systems)
T1 sequence (P10600 301-412, species assumed, looked up): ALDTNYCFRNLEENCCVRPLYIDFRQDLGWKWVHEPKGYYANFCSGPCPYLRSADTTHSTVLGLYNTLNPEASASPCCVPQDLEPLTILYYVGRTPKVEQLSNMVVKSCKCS

T2: TGFβ2 (R&D Systems)
T2 sequence (P61812 303-414, species assumed, looked up): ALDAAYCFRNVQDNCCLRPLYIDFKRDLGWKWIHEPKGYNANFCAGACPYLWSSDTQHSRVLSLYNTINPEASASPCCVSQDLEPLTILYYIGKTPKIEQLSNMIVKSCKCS


Assays:
TGFβ3 (R&D Systems) [1] = target: T1, TGFβ3 (R&D Systems); assay: cell-based or functional assay
TGFβ2 (R&D Systems) [2] = target: T2, TGFβ2 (R&D Systems); assay: cell-based or functional assay
TGFβ1 (R&D Systems) [3] = assay: cell-based or functional assay
Chain of TGFβ1 (R&D Systems) (P01137 279-390): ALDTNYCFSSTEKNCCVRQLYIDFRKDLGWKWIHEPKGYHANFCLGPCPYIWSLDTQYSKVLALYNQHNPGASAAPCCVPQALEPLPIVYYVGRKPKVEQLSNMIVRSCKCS

TGFβ3 (R&D Systems) [4] = target: T1, TGFβ3 (R&D Systems); assay: SPR (Biacore T200), TGFβ amine-coupled to chip, 1:1 fit
TGFβ2 (R&D Systems) [5] = target: T2, TGFβ2 (R&D Systems); assay: as above
TGFβ1 (R&D Systems) [6] = assay: as above

Binder | TGFb3 IC50 (SMAD3 phosphorylation in CMVICs, AlphaLISA) (TGFβ3 (R&D Systems) [1]) [µg/mL] | TGFb2 IC50 (SMAD3 phosphorylation in CMVICs, AlphaLISA) (TGFβ2 (R&D Systems) [2]) [µg/mL] | TGFb1 IC50 (SMAD3 phosphorylation in CMVICs, AlphaLISA) (TGFβ1 (R&D Systems) [3]) [µg/mL] | Kd (TGFβ3 (R&D Systems) [4]) [nM] | Kd (TGFβ2 (R&D Systems) [5]) [nM] | Kd (TGFβ1 (R&D Systems) [6]) [nM]
Caninized anti-TGFβ1,2,3 antibody VH5.6 - VL2 (antibody, V domains shown) VH: EVQLVESGGDLVKPGGSLRLSCVASGFTFSSNVISWVRQAPGQGLEWMGGVIPIVDIANYAQRFKGRVTITADESTSTTYMELSSLRSEDTAVYYCASTLGLVLDAMDYWGQGTLVTVSS VL: ETVLTQSPGTLSLSPGERATLSCRASQSLGSSYLAWYQQKPGQAPRLLIYGASSRAPGVPARFSGSGSGTDFTLTISSLEPEDFAVYYCQQYADSPITFGQGTKLEIKR | 0.056 | 0.691 | 0.019 | 1.67 | 2.6 | 3.68
Caninized anti-TGFβ1,2,3 antibody VH3.5 - VL2 (antibody, V domains shown) VH: EVQLVQSAAEVKKPGASVKVSCKTSGYIFISNVISWVQQAPGAGLEWMGGVIPIVDIANYAQRFKGRVTLTADTSTNTVYMELSNLRTEDTAVYYCASTLGLVLDAMDYWGQGTLVTVSS VL: ETVLTQSPGTLSLSPGERATLSCRASQSLGSSYLAWYQQKPGQAPRLLIYGASSRAPGVPARFSGSGSGTDFTLTISSLEPEDFAVYYCQQYADSPITFGQGTKLEIKR | 0.981 | 9.41 | 0.083 | 1.91 | 3.56 | 4.37
human: feline GC1008 chimera felchimGC1008 (antibody, V domains shown) VH: QVQLVQSGAEVKKPGSSVKVSCTASGYTPSSNVISNVRQAPGQGLENNGGVIPIVDIANYAQRPKGRVTITADESTSTTYHELSSLRSEDTAVYYCASTLGLVLDAMDYHGQGTLVTVSS VL: ETVLTQSPGTLSLSPGERATLSCRASQSLGSSYLAWYQQKPGQAPRLLIYGASSRAPGIPDRFSGSGSGTDFTLTISRLEPEDFAVYYCQQYADSPITFGQGTRLEIKR | 0.053 | 0.167 | 0.176 | 2.35 | 1.88 | 2.58
Felinized anti-TGFβ1,2,3 antibody VH2.1 - VL3 (antibody, V domains shown) VH: QVLLVQSGADVRKPGASVKIFCKASGYTFTSNVISWVRQTPAQGFEWMGGVIPIVDIANYAQRFKGRLVLTADTSTNTAYMELRSLKSADTAVYYCASTLGLVLDAMDYWGQGSLVTVSS VL: EIQMTQSPSSLSASPGDRVTITCRASQSLGSSYLAWYQQKPGKVPKLLIYGASSRAPGVPSRFSGSGSGTDFTLTISSLEPEDAATYYCQQYADSPITFGQGTKLEIKR | 0.132 | 0.277 | 0.597 | 2.6 | 1.91 | 2.89
Felinized anti-TGFβ1,2,3 antibody VH2.2 - VL3 (antibody, V domains shown) VH: QVLLVQSGADVRKPGASVKIFCKASGYTFSSNVMHWVRQTPAQGFEWMGSVIPIVDIATYARRFQGRLVLTADTSTNTAYMELRSLKSADTAVYYCARTLGLVLDAMDYWGQGSLVTVSS VL: EIQMTQSPSSLSASPGDRVTITCRASQSLGSSYLAWYQQKPGKVPKLLIYGASSRAPGVPSRFSGSGSGTDFTLTISSLEPEDAATYYCQQYADSPITFGQGTKLEIKR |  | 1.2 | 0.24 | 3.49 | 2.39 | 3.31
Felinized anti-TGFβ1,2,3 antibody VH2.8 - VL6 (antibody, V domains shown) VH: QVQLVQSGAEVKKPGSSVKVSCKASGYTFSSNVISWVRQTPAQGFEWMGGVIPIVDIANYAQRFKGRLVLTADTSTNTAYMELRSLKSADTAVYYCASTLGLVLDAMDYWGQGTLVTVSS VL: QSVLTQPPSVSGSLGQRVTISCRASQSLGSSYLAWYQQVPGRAPRLLIYGASSRAPGIPDRFSGSKSGTSGSLTITGLEADDEADYYCQQYADSPITFGGGTHLTVLG |  | 0.547 | 0.969 | 2.41 | 1.72 | 2.95
Caninized anti-TGFβ1,2,3 antibody VH4.11 - VL3 (antibody, V domains shown) VH: QVQLVQSGAEVKKPGSSVKVSCKASGYTFSSNVISWVRQAPGKGLQWVGGVIPIVDIANYAQRFKGRVTLTADTSTNTVYMELSNLRTEDTAVYYCARTLGLVLDAMDYWGQGTLVTVSS VL: EIVMTQSPASLSLSQEEKVTITCRASQSLGSSYLAWYQQKPGQAPKLLIYGASSRAPGVPSRFSGSGSGTDFSFTISSLEPEDVAVYYCQQYADSPITFGQGTKLEIKR | 0.575 | 16.7 | 1.01 | 2.5 | 5.15 | 7.14
Caninized anti-TGFβ1,2,3 antibody VH4.11 - VL2 (antibody, V domains shown) VH: QVQLVQSGAEVKKPGSSVKVSCKASGYTFSSNVISWVRQAPGKGLQWVGGVIPIVDIANYAQRFKGRVTLTADTSTNTVYMELSNLRTEDTAVYYCARTLGLVLDAMDYWGQGTLVTVSS VL: ETVLTQSPGTLSLSPGERATLSCRASQSLGSSYLAWYQQKPGQAPRLLIYGASSRAPGVPARFSGSGSGTDFTLTISSLEPEDFAVYYCQQYADSPITFGQGTKLEIKR | 0.375 | 8.48 | 0.164 | 2.1 | 3.77 | 4.98
Caninized anti-TGFβ1,2,3 antibody VH5.10 - VL3 (antibody, V domains shown) VH: EVQLVESGGDLVKPGGSLRLSCVASGFTFSSNVISWVRQAPGQGLEWMGGVIPIVDIANYAQRFKGRVTLTADTSTNTVYMELSNLRTEDTAVYYCARTLGLVLDAMDYWGQGTLVTVSS VL: EIVMTQSPASLSLSQEEKVTITCRASQSLGSSYLAWYQQKPGQAPKLLIYGASSRAPGVPSRFSGSGSGTDFSFTISSLEPEDVAVYYCQQYADSPITFGQGTKLEIKR | 0.113 | 5.47 | 0.232 | 1.5 | 3.57 | 5.23

Further lines, results first:

TGFb3 IC50 (SMAD3 phosphorylation in CMVICs, AlphaLISA) (TGFβ3 (R&D Systems) [1]) [µg/mL] | TGFb2 IC50 (SMAD3 phosphorylation in CMVICs, AlphaLISA) (TGFβ2 (R&D Systems) [2]) [µg/mL] | TGFb1 IC50 (SMAD3 phosphorylation in CMVICs, AlphaLISA) (TGFβ1 (R&D Systems) [3]) [µg/mL] | Kd (TGFβ3 (R&D Systems) [4]) [nM] | Kd (TGFβ2 (R&D Systems) [5]) [nM] | Kd (TGFβ1 (R&D Systems) [6]) [nM] | Binder
0.062 | 0.609 | 0.122 | 0.475 | 1.56 | 2.57 | Caninized anti-TGFβ1,2,3 antibody VH4.5 - VL1 (antibody, V domains shown) VH: EVQLVESGGDLVKPAGSLRLSCVASGYTFSSNVMSWVRQAPGKGLQWVGYVIPIVDIANYADAVKGRFTISRDNAKNTLYLQMNSLRVEDTAVYYCTRTLGLVLDAMDYWGQGTLVTVSS VL: ETVLTQSPGTLSLSPGERATLSCRASQSLGSSYLAWYQQKPGQAPRLLIYGASSRAPGIPDRFSGSGSGTDFTLTISRLEPEDFAVYYCQQYADSPITFGQGTRLEIKR
0.02 | 0.285 | 0.06 | 0.43 | 1.4 | 2.3 | Caninized anti-TGFβ1,2,3 antibody VH4.5 - VL2 (ZTS-207) (antibody, V domains shown) VH: EVQLVESGGDLVKPAGSLRLSCVASGYTFSSNVMSWVRQAPGKGLQWVGYVIPIVDIANYADAVKGRFTISRDNAKNTLYLQMNSLRVEDTAVYYCTRTLGLVLDAMDYWGQGTLVTVSS VL: ETVLTQSPGTLSLSPGERATLSCRASQSLGSSYLAWYQQKPGQAPRLLIYGASSRAPGVPARFSGSGSGTDFTLTISSLEPEDFAVYYCQQYADSPITFGQGTKLEIKR
0.203 | 0.459 | 0.057 | 1.49 | 3.42 | 4.39 | Caninized anti-TGFβ1,2,3 antibody VH3.6 - VL2 (antibody, V domains shown) VH: EVQLVQSAAEVKKPGASVKVSCKTSGYIFISNVISWVRQAPGQGLEWMGGVIPIVDIANYAQRFKGRVTITADESTSTTYMELSSLRSEDTAVYYCASTLGLVLDAMDYWGQGTLVTVSS VL: ETVLTQSPGTLSLSPGERATLSCRASQSLGSSYLAWYQQKPGQAPRLLIYGASSRAPGVPARFSGSGSGTDFTLTISSLEPEDFAVYYCQQYADSPITFGQGTKLEIKR
0.092 | 0.508 | 0.061 | 1.12 | 3.37 | 5.6 | Caninized anti-TGFβ1,2,3 antibody VH3.1 - VL2 (ZTS-122) (antibody, V domains shown) VH: DVQLVESGGDLVKPGGSLRLTCVASGYTFSSNVMHWVRQAPGKGLQWVAYVIPIVDIAYYADSVKGRFTISIDNSKNTLYLQMNSLKTEDTATYYCARTLGLVLDAMDYWGQGTLVTVSS VL: ETVLTQSPGTLSLSPGERATLSCRASQSLGSSYLAWYQQKPGQAPRLLIYGASSRAPGVPARFSGSGSGTDFTLTISSLEPEDFAVYYCQQYADSPITFGQGTKLEIKR
0.034 | 0.954 | 0.134 | 0.981 | 3.91 | 7.52 | Caninized anti-TGFβ1,2,3 antibody VH3.1 - VL3 (antibody, V domains shown) VH: DVQLVESGGDLVKPGGSLRLTCVASGYTFSSNVMHWVRQAPGKGLQWVAYVIPIVDIAYYADSVKGRFTISIDNSKNTLYLQMNSLKTEDTATYYCARTLGLVLDAMDYWGQGTLVTVSS VL: EIVMTQSPASLSLSQEEKVTITCRASQSLGSSYLAWYQQKPGQAPKLLIYGASSRAPGVPSRFSGSGSGTDFSFTISSLEPEDVAVYYCQQYADSPITFGQGTKLEIKR
 | 0.81 | 0.071 | 1.2 | 1.99 | 2.61 | Caninized anti-TGFβ1,2,3 antibody VH4.7 - VL2 (antibody, V domains shown) VH: QVQLVQSGAEVKKPGSSVKVSCKASGYTFSSNVISWVRQAPGKGLQWVGGVIPIVDIANYAQRFKGRVTITADESTSTTYMELSSLRSEDTAVYYCASTLGLVLDAMDYWGQGTLVTVSS VL: ETVLTQSPGTLSLSPGERATLSCRASQSLGSSYLAWYQQKPGQAPRLLIYGASSRAPGVPARFSGSGSGTDFTLTISSLEPEDFAVYYCQQYADSPITFGQGTKLEIKR
